Measurements published in patent US20260091122A1.

Key:
[1] = target: membrane of human CD14+ monocytes isolated from the peripheral blood of a healthy subject; assay: flow cytometry on human monocytes, AF647 label, 37 C
[2] = target: membrane of human macrophages differentiated in vitro in the presence of M-CSF from CD14+ monocytes; assay: flow cytometry on human macrophages, AF647 label, 37 C

non-specific antibody corresponding to an isotype control coupled to the Alexa Fluor (AF) 647 fluorochrome
MFI [1]: 265 MFI
Ratio (MFI against that of the isotype control) [1]: 1
MFI [2]: 1640 MFI
Ratio (MFI against that of the isotype control) [2]: 1
